Assay results: PMC8042443

Target: GST fusion protein of the α1-syntrophin PDZ domain (UniProt Q61234)
Experiment: pull-down; GST fusion proteins immobilised on beads, incubated 1 to 2 h at 4 °C with lysates of MEFs expressing HA-tagged DGKζ constructs; washed at least four times with ice-cold lysis buffer; bound DGKζ detected by anti-HA immunoblot; in some panels cells were treated with vehicle, 100 nM PMA, or 1 μM Gö6976 before PMA

HA-tagged DGKζ^M1 (all four serine residues in the MARCKS domain changed to aspartate), sequence (Q13574 whole entry, the tested form may be a part): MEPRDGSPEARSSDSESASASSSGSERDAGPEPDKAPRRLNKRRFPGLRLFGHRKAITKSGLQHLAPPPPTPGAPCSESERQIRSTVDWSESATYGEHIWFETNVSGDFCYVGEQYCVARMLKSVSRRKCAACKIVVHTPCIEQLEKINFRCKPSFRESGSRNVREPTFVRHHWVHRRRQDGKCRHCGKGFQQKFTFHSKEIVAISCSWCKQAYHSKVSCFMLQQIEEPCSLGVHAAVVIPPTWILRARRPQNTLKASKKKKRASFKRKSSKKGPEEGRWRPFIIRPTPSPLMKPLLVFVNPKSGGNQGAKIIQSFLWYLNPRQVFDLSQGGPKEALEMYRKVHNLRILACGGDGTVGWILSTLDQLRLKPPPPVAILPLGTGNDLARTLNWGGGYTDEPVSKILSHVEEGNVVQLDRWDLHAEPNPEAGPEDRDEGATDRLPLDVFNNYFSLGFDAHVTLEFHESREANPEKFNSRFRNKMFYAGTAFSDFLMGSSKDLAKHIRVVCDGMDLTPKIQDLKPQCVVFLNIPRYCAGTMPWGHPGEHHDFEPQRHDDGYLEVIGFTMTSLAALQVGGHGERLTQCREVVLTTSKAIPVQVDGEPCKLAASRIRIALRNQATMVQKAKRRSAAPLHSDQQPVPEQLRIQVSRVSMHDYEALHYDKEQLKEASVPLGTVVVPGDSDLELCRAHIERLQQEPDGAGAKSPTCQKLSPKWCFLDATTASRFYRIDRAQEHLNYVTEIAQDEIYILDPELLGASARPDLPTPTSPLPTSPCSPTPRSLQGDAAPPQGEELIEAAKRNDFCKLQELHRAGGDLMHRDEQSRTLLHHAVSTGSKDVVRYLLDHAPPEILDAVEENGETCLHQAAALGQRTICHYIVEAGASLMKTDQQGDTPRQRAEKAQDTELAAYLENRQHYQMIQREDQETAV
GST fusion protein of the α1-syntrophin PDZ domain, sequence (Q61234 81-164): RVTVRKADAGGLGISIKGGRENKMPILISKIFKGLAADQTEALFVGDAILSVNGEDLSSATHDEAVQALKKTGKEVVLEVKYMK

fold binding against DGKζ^WT: 2.5 fold
Substance: HA-tagged DGKζ^M1 (all four serine residues in the MARCKS domain changed to aspartate) (from UniProt Q13574 1-928) (enzyme)
